This passage reports Kd results from publication PMC3347520, “Relative Comparison of Catalytic Characteristics of Human Foamy Virus and HIV-1 Integrases”.

The target of this data set is HFV integrase (HFV IN) (Human foamy virus, UniProt P14350 752-1143). Put plainly: EMSA; 5 mM Mg2+. The note with it: protein: recombinant; chain copies: 4; blunt.

B1: U5-HFV duplex (U5B-HFV/U5A-HFV) (dsDNA)
DNA 1: ATACAAAATTCCATGACAAT
DNA 2: ATTGTCATGGAATTTTGTAT
Consider B1, for which the Kd (in general, the constant that tells how readily two partners part at equilibrium) was found to be 17.3 nM.
